Test results published in patent EP1882698A1 (Chemokine Therapeutics Corp., dated 2008).
Non-standard residues stand in square brackets, D forms with d. No end group written: not given here. Aun = NCCCCCCCCCCC(=O)O

T1: CXCR3 receptor (UniProt P49682 1-368, limits assumed)
T1 sequence (looked up): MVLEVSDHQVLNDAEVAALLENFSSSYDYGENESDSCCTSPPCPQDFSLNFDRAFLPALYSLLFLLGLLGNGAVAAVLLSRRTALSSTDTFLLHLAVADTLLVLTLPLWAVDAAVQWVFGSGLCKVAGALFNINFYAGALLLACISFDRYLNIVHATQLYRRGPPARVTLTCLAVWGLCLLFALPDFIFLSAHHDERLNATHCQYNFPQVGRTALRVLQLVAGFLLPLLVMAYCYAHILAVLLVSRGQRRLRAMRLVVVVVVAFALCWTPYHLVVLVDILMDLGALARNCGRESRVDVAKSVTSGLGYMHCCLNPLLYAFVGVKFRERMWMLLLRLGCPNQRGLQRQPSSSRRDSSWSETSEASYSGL


The binders below were run against T1, CXCR3 receptor (assay: cell-based or functional assay).

Row | Binder | calcium mobilization activity of CXCR-3/300-19 cells, dosage 1.2 µM | calcium mobilization activity of CXCR-3/300-19 cells, dosage 3.7 µM | calcium mobilization activity of CXCR-3/300-19 cells, dosage 11.1 µM | calcium mobilization activity of CXCR-3/300-19 cells, dosage 33.3 µM | calcium mobilization activity of CXCR-3/300-19 cells, dosage 100 µM
1 | Ac-VPLSRTVRCTCISISN[Aun]LKAVSKEMSKRSP (cysteine pairing not given here) [Acetylated-IP-10-(1-16)-[linker]-IP-10-(66-78)] | 12.6 | 12.7 | 14.1 | 20 | 52.9
2 | Ac-VPLSRTVRATFISISN[Aun]LKAVSKEMSKRSP [Acetylated-[Ala^9,Phe^11]-IP-10-(1-16)-[linker]-IP-10-(66-78)] | 15.2 | 13.8 | 15.4 | 20 | 3.1
3 | VPLSRTPRCTCISIS[Aun]ESKAIKNLLKAVSK (cysteine pairing not given here) [[Pro^7]-IP-10-(1-15)-[linker]-IP-10-(58-71)] | 16 | 14 | 14.4 | 18.6 | 55.1
4 | VPLSRTVRSTSISIS[Aun]ESKAIENLLKAVSK [[Ser^9,Ser^11,Glu^63]-IP-10-(1-15)-[linker]-IP-10-(58-71)] | 18.8 | 18.5 | 17.2 | 18.9 | 46.6
5 | VPLSRTVRSTSISIS[Aun]ESKAIKNLLEAVSK [[Ser^9,Ser^11,Glu^67]-IP-10-(1-15)-[linker]-IP-10-(58-71)] | 17.4 | 15.4 | 12.5 | 13.3 | 3.4
